In patent publication US20100239571A1 (Seagen, published 2010) one finds EC50 data, which are given here for 9 molecules.

As a reminder, the EC50 is the concentration at which the effect is half-maximal.

Where a chain is given by its changes, count along the chain named.

The target in assay [1] is T1, CD30 surface antigen expressed on Karpas-299 (human, UniProt P28908 19-595).
T1 construct: whole, on cells; also called human CD30
T1 sequence (looked up): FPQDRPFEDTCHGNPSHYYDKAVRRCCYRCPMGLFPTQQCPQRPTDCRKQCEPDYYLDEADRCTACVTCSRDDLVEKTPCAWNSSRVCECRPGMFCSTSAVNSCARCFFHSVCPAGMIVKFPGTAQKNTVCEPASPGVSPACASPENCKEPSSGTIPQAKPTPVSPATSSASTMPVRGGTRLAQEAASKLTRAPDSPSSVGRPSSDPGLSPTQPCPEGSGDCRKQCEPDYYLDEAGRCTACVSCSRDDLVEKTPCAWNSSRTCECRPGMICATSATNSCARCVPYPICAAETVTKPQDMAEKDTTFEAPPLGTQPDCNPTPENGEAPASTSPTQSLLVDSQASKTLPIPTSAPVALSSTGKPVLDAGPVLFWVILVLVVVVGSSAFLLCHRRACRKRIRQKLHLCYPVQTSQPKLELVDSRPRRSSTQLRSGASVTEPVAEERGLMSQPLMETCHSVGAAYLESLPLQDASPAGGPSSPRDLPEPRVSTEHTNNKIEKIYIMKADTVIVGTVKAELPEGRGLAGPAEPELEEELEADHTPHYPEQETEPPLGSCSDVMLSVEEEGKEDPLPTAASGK
The experiment in a line: competition binding on Karpas 299 cells against europium-labeled cAC10. Here is the method: (§1) The variants were tested for binding to CD30 surface antigen expressed on Karpas-299, an anaplastic large cell lymphoma cell line, using a competition binding assay in which cAC10, expressed in CHO cells, was europium labeled (see, e.g., Law et al., Cancer Research 65:8331-38 (2005)). The results, shown below in the second column of Table 6, indicate that all of the variants were able to compete with cAC10 for binding to CD30. Thus, the variants retained antigen binding activity.

Assay [2] addresses T1, CD30 surface antigen expressed on …. Kind of assay: competition binding on Karpas 299 cells against europium-labeled cAC10 (control competitor). How it is done: as §1

B1: hAC10 HALA (antibody, human IgG1, kappa, V domains shown)
VH: QVQLVQSGAEVKKPGASVKVSCKASGYTFTDYYITWVRQAPGQGLEWMGWIYPGSGNTKYNEKFKGRVTMTVDTSISTAYMELSRLRSDDTAVYFCANYGNYWFAYWGQGTLVTVSS
VL: DIVMTQSPDSLAVSLGERATINCKASQSVDFDGDSYMNWYQQKPGQPPKLLIYAASNLESGVPDRFSGSGSGTDFTLTISSLQAEDVAVYYCQQSNEDPWTFGQGTKVEIKR
notes: The name HALA is read as heavy variant A plus light variant A; also called humanized AC10 variant HALA; hVH A + hVL A
In assay [1], B1 gave an EC50 of 6.61 nM.

B2: hAC10 HBLA (antibody, human IgG1, kappa, V domains shown)
VH: B1 VH with V72R
VL: B1 VL
notes: Human IgG1 / kappa; also called humanized AC10 variant HBLA; hVH B + hVL A
In turn, B2 had a concentration for a half-maximal effect (EC50) in assay [1] of 3.31 nM.

B3: hAC10 HCLA (antibody, human IgG1, kappa, V domains shown)
VH: B1 VH with F95Y
VL: B1 VL
notes: Human IgG1 / kappa; also called humanized AC10 variant HCLA; hVH C + hVL A
For B3, it took 3.61 nM to reach a half-maximal effect in assay [1] (EC50).

B4: hAC10 HALC (antibody, human IgG1, kappa, V domains shown)
VH: B1 VH
VL: B1 VL with M37L
notes: Human IgG1 / kappa; also called humanized AC10 variant HALC; hVH A + hVL C
Take B4: a half-maximal response in assay [1] (EC50) required 3.53 nM.

B5: hAC10 HALD (antibody, human IgG1, kappa, V domains shown)
VH: B1 VH
VL: B1 VL with A25S, M37L
notes: Human IgG1 / kappa; also called humanized AC10 variant HALD; hVH A + hVL D
B5 showed a concentration giving a half-maximal response (EC50) in assay [1] of 6 nM.

B6: hAC10 HDLA (antibody, human IgG1, kappa, V domains shown)
VH: B1 VH with V72R, F95Y
VL: B1 VL
notes: Human IgG1 / kappa; also called humanized AC10 variant HDLA; antibody HDLA
As to B6, the midpoint of the response in assay [1], the EC50, lay at 3.1 nM.

B7: hAC10 HALB (antibody, human IgG1, kappa, V domains shown)
VH: B1 VH
VL: B1 VL with A25S
notes: Human IgG1 / kappa; also called humanized AC10 variant HALB; hVH A + hVL B
The molecule B7 registered an EC50 in assay [1] of 5.9 nM.

B8: hAC10 HDLD (antibody, human IgG1, kappa, V domains shown)
VH: B1 VH with V72R, F95Y
VL: B1 VL with A25S, M37L
notes: Human IgG1 / kappa; also called humanized AC10 variant HDLD; hVH D + hVL D
B8: in assay [1], the EC50 came to 2.25 nM.

B9: cAC10 (CHO) (antibody, V domains shown)
VH: QVQLVQSGAEVVKPGASVKVSCKASGYTFTDYYITWVRQAPGQGLEWMGWIYPGSGNTKYNEKFKGKATLTVDTSSSTAFMQLSSLTSEDTAVYFCANYGNYWFAYWGQGTQVTVSA
VL: DIVLTQSPASLAVSLGQRATISCKASQSVDFDGDSYMNWYQQKPGQPPKVLIYAASNLESGIPARFSGSGSGTDFTLNIHPVEEEDAATYYCQQSNEDPWTFGGGTKLEIK
notes: Human-murine chimeric AC10 expressed in CHO cells; also called chimeric AC10; chimeric monoclonal antibody AC10
On to B9, for which the midpoint of the response in assay [2], the EC50, lay at 2.9 nM.
